The values below come from US20120021923.

For prostate-specific antigen (PSA), in the series on Ac-KGISSQY-AFC, the “Km (PSA-A buffer)” value is “the Km value is estimated to be 1.73 mM”, the “Km (PSA-B buffer)” value was “the Km value is estimated to be 0.47 mM”, the “Vmax (PSA-A buffer)” value is “the Vmax is estimated to be 3.7 RLU/sec” and the “Vmax (PSA-B buffer)” value is listed as “the Vmax is estimated to be 2.33 RLU/sec”. In addition, the “turnover rate by PSA” value in the series on Ac-KGISSQY-AFC is recorded as “the substrate of KGISSQY has a much higher turnover rate by PSA as compared to SKLQ”. For the same substance, in the series on SKLQ-aluc, the “turnover rate by PSA” value is “SKLQ on the other had appears to have a very slow turnover compared to KGISSQY and to be highly specific to PSA”.
